Laboratory results taken from US20200079854A1 (Johns Hopkins, published 2020).

Legend:
[1] = target: T1, KRAS wt(7-16) peptide … with HLA-A3 and b2M on cells (human); assay: flow cytometry, phage-displayed scFv on peptide-pulsed T2A3 cells (FIG. 6)
T1 construct: peptide-pulsed T2A3 cells in flow cytometry
Protocol: (§1) Cells were stained with 10 μL of precipitated phage per 100 μL of cells, washed and stained with rabbit anti-M13 antibody, then washed and stained with anti-Rabbit-PE antibody. Cells were stained with a live/dead Near-IR dye, washed, and analyzed by an LSRII flow cytometer.
(§2) The pulsed cells were pelleted, washed once in cold stain buffer (PBS containing 0.5% BSA, 2 mM EDTA, and 0.1% sodium azide), and resuspended in 100 μL of stain buffer. Phage staining was performed on ice with 10 uL (approximately 1×10⁹) phage for 1 hour in 100 uL total volume, followed by one 4 mL wash in cold stain buffer. Cells were then stained with 1 uL of rabbit anti-M13 antibody (Pierce, Rockford, Ill.) in 100 uL total volume on ice for 1 hour and washed once with 4 mL of cold stain buffer. Cells were stained with anti-rabbit-PE (Biolegend) on ice for 1 hour in 100 uL total volume, followed by incubation with LIVE/DEAD Fixable Near-IR Dead Cell Stain (Thermo Fisher) for 10 min at room temperature per manufacturer's instructions. Cells were washed once in 4 mL of stain buffer followed by resuspension in 300 uL of stain buffer before analysis. Stained cells were analyzed using an LSRII flow cytometer (Becton Dickinson, Mansfield, Mass.).

[2] = target: KRAS wt(6-14) peptide … with HLA-A2 and b2M on peptide-pulsed T2 cells (human); assay: flow cytometry, phage-displayed scFv on peptide-pulsed T2 cells (FIG. 5)
Protocol: as §1, §2

| Binder | binding result [1] | binding result [2] |
| --- | --- | --- |
| KRAS_G12CDV_A3_c19 (scFv) scFv: DIQMTQSPSSLSASVGDRVTITCRASQDVNTAVAWYQQKPGKAPKLLIYSASFLYSGVPSRFSGSRSGTDFTLTISSLQPEDFATYYCQQTYYSPWTFGQGTKVEIKRTGGGSGGGGSGGGASEVQLVESGGGLVQPGGSLRLSCAASGFNIRSYAMHWVRQAPGKGLEWVAQVGPGKGYTYYADSVKGRFTISADTSKNTAYLQMNSLRAEDTAVYYCSRNFQSTSHAFDYWGQGTLVTVSS | no binding |  |
| KRAS_G12V_A2_C1 (scFv) scFv: DIQMTQSPSSLSASVGDRVTITCRASQDVNTAVAWYQQKPGKAPKLLIYSASFLYSGVPSRFSGSRSGTDFTLTISSLQPEDFATYYCQQYYSRPVTFGQGTKVEIKRTGGGSGGGGSGGGASEVQLVESGGGLVQPGGSLRLSCAASGFNIYLHDMHWVRQAPGKGLEWVAQIIPAIDYTNYADSVKGRFTISADTSKNTAYLQMNSLRAEDTAVYYCSRRDGYYFDYWGQGTLVTVSS |  | no binding |

The remaining lines, values ahead:

| binding result [1] | binding result [2] | Binder |
| --- | --- | --- |
| no binding |  | KRAS_G12CDV_A3_c118 (scFv) scFv: DIQMTQSPSSLSASVGDRVTITCRASQDVNTAVAWYQQKPGKAPKLLIYSASFLYSGVPSRFSGSRSGTDFTLTISSLQPEDFATYYCQQYYYPPITFGQGTKVEIKRTGGGSGGGGSGGGASEVQLVESGGGLVQPGGSLRLSCAASGFNVSHTGMHWVRQAPGKGLEWVAVVGPGKGYTYYADSVKGRFTISADTSKNTAYLQMNSLRAEDTAVYYCSRKTYYAFDYWGQGTLVTVSS |
| no binding |  | KRAS_G12CV_A3_c15 (scFv) scFv: DIQMTQSPSSLSASVGDRVTITCRASQDVNTAVAWYQQKPGKAPKLLIYSASFLYSGVPSRFSGSRSGTDFTLTISSLQPEDFATYYCQQSYGSGSPWTFGQGTKVEIKRTGGGSGGGGSGGGASEVQLVESGGGLVQPGGSLRLSCAASGFNIVGGGIHWVRQAPGKGLEWVAKIYPQGDYTYYADSVKGRFTISADTSKNTAYLQMNSLRAEDTAVYYCSRDSSYLAFDYWGQGTLVTVSS |
